Patent US20250019437A1
Residue numbers refer to the chain shown, from its start. Each block holds one binder with its values, some of them ahead of it.

Tests used:
[1] = target: T1, human TREM2 (triggering receptor expressed on myeloid cells 2) (human) (UniProt Q9NZC2); experiment: 1st screen, 110 nM Ab
T1 sequence (looked up): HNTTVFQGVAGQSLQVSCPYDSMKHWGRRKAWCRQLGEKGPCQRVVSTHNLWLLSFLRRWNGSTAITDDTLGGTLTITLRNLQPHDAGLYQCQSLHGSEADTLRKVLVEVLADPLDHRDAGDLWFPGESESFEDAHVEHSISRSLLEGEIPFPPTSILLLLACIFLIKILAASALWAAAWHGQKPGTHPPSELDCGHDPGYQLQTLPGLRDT

[2] = target: T1, human TREM2 (triggering receptor expressed on myeloid cells 2) (human); experiment: 2nd screen, 100 nM Ab

Binding Signal (fold over 6E7 parental antibody) [1]: 0.34 fold | Binding Signal (fold over 6E7 parental antibody) [2]: 1.02 fold
B1: 6E7 antibody affinity modulation variant V34 (antibody, V domains shown)
VH: EVQLVQSGAEVKKPGESLKISCKGSGYSFTSYWIAWVRQMPGKGLEWMGIIYPGDSDTRYSPSFQGQVTISADKSISTAYLQWSSLKASDTAMYFCARQRTFYYDSSDYFDYWGQGTLVTVSS
VL: DIQMTQSPSSVSASVGDRVTITCRASQGISSWLAWYQQKPGKAPKLLIYAASSLQDGVPSRFSGSGSGTDFTLTISSLQPEDFATYFCQQADSFPRTFGQGTKLEIK

Binding Signal (fold over 6E7 parental antibody) [1]: 0.24 fold | Binding Signal (fold over 6E7 parental antibody) [2]: 0.66 fold
B2: 6E7 antibody affinity modulation variant V55 (antibody, V domains shown)
VH: B1 VH with R59I, F64H
VL: B1 VL with D56N

Binding Signal (fold over 6E7 parental antibody) [1]: 0.7 fold | Binding Signal (fold over 6E7 parental antibody) [2]: 0.52 fold
B3: 6E7 antibody affinity modulation variant V79 (antibody, V domains shown)
VH: B1 VH with R59N
VL: B1 VL with D56N

Binding Signal (fold over 6E7 parental antibody) [1]: 0.59 fold | Binding Signal (fold over 6E7 parental antibody) [2]: 0.5 fold
B4: 6E7 antibody affinity modulation variant V80 (antibody, V domains shown)
VH: B1 VH with T101N
VL: B1 VL with D56N

Binding Signal (fold over 6E7 parental antibody) [1]: 0.2 fold | Binding Signal (fold over 6E7 parental antibody) [2]: 0.29 fold
B5: 6E7 antibody affinity modulation variant V83 (antibody, V domains shown)
VH: B1 VH
VL: B1 VL with D56N, D92V

Binding Signal (fold over 6E7 parental antibody) [1]: 0.19 fold | Binding Signal (fold over 6E7 parental antibody) [2]: 0.6 fold
B6: 6E7 antibody affinity modulation variant V59 (antibody, V domains shown)
VH: B1 VH
VL: B1 VL with D56N, Q89M

Binding Signal (fold over 6E7 parental antibody) [1]: 0.28 fold | Binding Signal (fold over 6E7 parental antibody) [2]: 0.68 fold
B7: 6E7 antibody affinity modulation variant V58 (antibody, V domains shown)
VH: B1 VH
VL: B1 VL with A50K, D56N

Binding Signal (fold over 6E7 parental antibody) [1]: 0.25 fold | Binding Signal (fold over 6E7 parental antibody) [2]: 0.74 fold
B8: 6E7 antibody affinity modulation variant V66 (antibody, V domains shown)
VH: B1 VH with Y27T
VL: B1 VL with D56N

Binding Signal (fold over 6E7 parental antibody) [1]: 0.65 fold | Binding Signal (fold over 6E7 parental antibody) [2]: 0.52 fold
B9: 6E7 antibody affinity modulation variant V44 (antibody, V domains shown)
VH: B1 VH with G54S
VL: B1 VL with D56N

Binding Signal (fold over 6E7 parental antibody) [1]: 0.3 fold | Binding Signal (fold over 6E7 parental antibody) [2]: 0.79 fold
B10: 6E7 antibody affinity modulation variant V82 (antibody, V domains shown)
VH: B1 VH
VL: B1 VL with A51G, D56N

Binding Signal (fold over 6E7 parental antibody) [1]: 0.44 fold | Binding Signal (fold over 6E7 parental antibody) [2]: 0.43 fold
B11: 6E7 antibody affinity modulation variant V68 (antibody, V domains shown)
VH: B1 VH with Y103R
VL: B1 VL with D56N

Binding Signal (fold over 6E7 parental antibody) [1]: 0.21 fold | Binding Signal (fold over 6E7 parental antibody) [2]: 0.29 fold
B12: 6E7 antibody affinity modulation variant V35 (antibody, V domains shown)
VH: B1 VH
VL: B1 VL with D56N, D92Y

Binding Signal (fold over 6E7 parental antibody) [1]: 0.86 fold | Binding Signal (fold over 6E7 parental antibody) [2]: 1.11 fold
B13: 6E7 antibody affinity modulation variant V78 (antibody, V domains shown)
VH: B1 VH with S28R
VL: B1 VL with D56N

Binding Signal (fold over 6E7 parental antibody) [1]: 0.23 fold | Binding Signal (fold over 6E7 parental antibody) [2]: 0.59 fold
B14: 6E7 antibody affinity modulation variant V56 (antibody, V domains shown)
VH: B1 VH with S61Q
VL: B1 VL with D56N

Binding Signal (fold over 6E7 parental antibody) [1]: 0.79 fold | Binding Signal (fold over 6E7 parental antibody) [2]: 0.84 fold
B15: 6E7 antibody affinity modulation variant V70 (antibody, V domains shown)
VH: B1 VH
VL: B1 VL with S52G, D56N

Binding Signal (fold over 6E7 parental antibody) [1]: 0.42 fold | Binding Signal (fold over 6E7 parental antibody) [2]: 0.47 fold
B16: 6E7 antibody affinity modulation variant V47 (antibody, V domains shown)
VH: B1 VH
VL: B1 VL with D56N, R96M

Binding Signal (fold over 6E7 parental antibody) [1]: 0.2 fold | Binding Signal (fold over 6E7 parental antibody) [2]: 0.33 fold
B17: 6E7 antibody affinity modulation variant V43 (antibody, V domains shown)
VH: B1 VH with D57G
VL: B1 VL with D56N

Binding Signal (fold over 6E7 parental antibody) [1]: 0.17 fold | Binding Signal (fold over 6E7 parental antibody) [2]: 0.23 fold
B18: 6E7 antibody affinity modulation variant V81 (antibody, V domains shown)
VH: B1 VH
VL: B1 VL with W32L, D56N

Binding Signal (fold over 6E7 parental antibody) [1]: 0.55 fold | Binding Signal (fold over 6E7 parental antibody) [2]: 0.54 fold
B19: 6E7 antibody affinity modulation variant V54 (antibody, V domains shown)
VH: B1 VH with Y32Q
VL: B1 VL with D56N

Binding Signal (fold over 6E7 parental antibody) [1]: 0.45 fold | Binding Signal (fold over 6E7 parental antibody) [2]: 0.41 fold
B20: 6E7 antibody affinity modulation variant V42 (antibody, V domains shown)
VH: B1 VH with Y32A
VL: B1 VL with D56N

Binding Signal (fold over 6E7 parental antibody) [1]: 0.37 fold | Binding Signal (fold over 6E7 parental antibody) [2]: 0.48 fold
B21: 6E7 antibody affinity modulation variant V71 (antibody, V domains shown)
VH: B1 VH
VL: B1 VL with D56N, F94E

Binding Signal (fold over 6E7 parental antibody) [1]: 0.43 fold | Binding Signal (fold over 6E7 parental antibody) [2]: 0.53 fold
B22: 6E7 antibody affinity modulation variant V45 (antibody, V domains shown)
VH: B1 VH
VL: B1 VL with W32F, D56N

Binding Signal (fold over 6E7 parental antibody) [1]: 0.84 fold | Binding Signal (fold over 6E7 parental antibody) [2]: 0.85 fold
B23: 6E7 antibody affinity modulation variant V57 (antibody, V domains shown)
VH: B1 VH
VL: B1 VL with R24A, D56N

Binding Signal (fold over 6E7 parental antibody) [1]: 0.41 fold | Binding Signal (fold over 6E7 parental antibody) [2]: 0.4 fold
B24: 6E7 antibody affinity modulation variant V69 (antibody, V domains shown)
VH: B1 VH
VL: B1 VL with W32Y, D56N

Binding Signal (fold over 6E7 parental antibody) [1]: 0.83 fold | Binding Signal (fold over 6E7 parental antibody) [2]: 0.96 fold
B25: 6E7 antibody affinity modulation variant V46 (antibody, V domains shown)
VH: B1 VH
VL: B1 VL with S53T, D56N

Binding Signal (fold over 6E7 parental antibody) [1]: 0.8 fold | Binding Signal (fold over 6E7 parental antibody) [2]: 0.84 fold
B26: 6E7 antibody affinity modulation variant V67 (antibody, V domains shown)
VH: B1 VH with I50M
VL: B1 VL with D56N
